Holding throughout (assay): cell-based or functional assay
The target of test [1] is T1, exogenous platelet factor 4 (PF4), heparin-modified (PF4/heparin complex) (UniProt P02776 32-101).
T1 sequence (looked up): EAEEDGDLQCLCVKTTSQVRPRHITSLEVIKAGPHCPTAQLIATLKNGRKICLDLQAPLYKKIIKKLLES

In test [2] the target is T1, exogenous platelet factor 4 (PF4), …. The source holds these as a separate data set.
The target is the same in test [3]. The source holds these as a separate data set.
Test [4] has the same target. This is another data set of the same source.
For test [5] the target is unchanged. This is another data set of the same source.
Test [6] shares this target. This is another data set of the same source.
The target is the same in test [7]. The source holds these as a separate data set.
Test [8] shares this target. This is another data set of the same source.
The target is the same in test [9]. This is another data set of the same source.
The target is the same in test [10]. The source holds these as a separate data set.
For test [11] the target is unchanged. The source holds these as a separate data set.
Test [12] shares this target. The source holds these as a separate data set.

B1: chimeric monoclonal antibody 5B9 (antibody, V domains shown)
VH: DVQLQESGPDLVKPSQSLSLTCTVTGYSITSGYSWHWIRQFPGNKLEWMGYIHYSGSTNYNPSLKSRISITRDTSKNQFFLQLNSVTTEDTATYYCARELRLRYFDVWGAGTTVTVSS
VL: EIVLTQSPTTMAASPGEKITITCSASSSISSNYLHWYQQKPGFSPKLLIYRTSNLASGVPARFSGSGSGTSYSLTIGTMEAEDVATYYCQQGSSIPLTFGAGTKLELKR
Take B1: in test [1], the “VS series activation ratio, CD62P labeling, patient 6 whole blood” value was 117 ratio and the “VS series inhibition ratio, CD62P labeling, patient 6 whole blood (heparin 100 IU/ml)” value is 0.94 ratio. Moreover, in test [2], the “VS series activation ratio, CD62P labeling, patient 2 whole blood” value was 13.2 ratio and the “VS series inhibition ratio, CD62P labeling, patient 2 whole blood (heparin 100 IU/ml)” value was determined as 0.9 ratio. Moreover, in [3], the “VS series activation ratio, Annexin V labeling, patient 5 whole blood” value worked out at 8.6 ratio and the “VS series inhibition ratio, Annexin V labeling, patient 5 whole blood (heparin 100 IU/ml)” value was found to be 0.61 ratio. In addition, in test [4], the “VS series activation ratio, Annexin V labeling, patient 1 whole blood” value is 95.9 ratio and the “VS series inhibition ratio, Annexin V labeling, patient 1 whole blood (heparin 100 IU/ml)” value amounted to 0.85 ratio. Moreover, in [5], the “VS series activation ratio, Annexin V labeling, patient 4 whole blood” value turned out to be 412 ratio and the “VS series inhibition ratio, Annexin V labeling, patient 4 whole blood (heparin 100 IU/ml)” value came to 0.95 ratio. Moreover, in test [6], the “VS series activation ratio, Annexin V labeling, patient 6 whole blood” value worked out at 26.5 ratio and the “VS series inhibition ratio, Annexin V labeling, patient 6 whole blood (heparin 100 IU/ml)” value stood at 0.75 ratio. Further, in [7], the “VS series activation ratio, Annexin V labeling, patient 3 whole blood” value stood at 21.7 ratio and the “VS series inhibition ratio, Annexin V labeling, patient 3 whole blood (heparin 100 IU/ml)” value came to 0.74 ratio. Besides, in test [8], the “VS series activation ratio, CD62P labeling, patient 4 whole blood” value came out at 281 ratio and the “VS series inhibition ratio, CD62P labeling, patient 4 whole blood (heparin 100 IU/ml)” value stood at 0.94 ratio. In test [9], the “VS series activation ratio, CD62P labeling, patient 1 whole blood (max % x MFI with 5B9 + PF4 + low heparin over basal)” value worked out at 300 ratio and the “VS series inhibition ratio, CD62P labeling, patient 1 whole blood (heparin 100 IU/ml)” value is 0.88 ratio. Besides, in test [10], the “VS series activation ratio, CD62P labeling, patient 3 whole blood” value is 94.2 ratio and the “VS series inhibition ratio, CD62P labeling, patient 3 whole blood (heparin 100 IU/ml)” value is 0.57 ratio. In test [11], the “VS series activation ratio, CD62P labeling, patient 5 whole blood” value worked out at 52.7 ratio and the “VS series inhibition ratio, CD62P labeling, patient 5 whole blood (heparin 100 IU/ml)” value stood at 0.84 ratio. In test [12], the “VS series activation ratio, Annexin V labeling, patient 2 whole blood” value came out at 11.3 ratio and the “VS series inhibition ratio, Annexin V labeling, patient 2 whole blood (heparin 100 IU/ml)” value was found to be 0.65 ratio.

For the origin of these results see US20250155457A1 (DIAGNOSTICA STAGO, published 2025).
